Experimental data: the NTF2 design screens of Basanta et al. (2020)

Assay: protease stability score; higher = more stable; yeast display proteolysis, trypsin and chymotrypsin;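 further: relative to predicted unfolded state with 0 unfolded-like and 1 meaning tenfold more protease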

Sequence: DKEDEDIKHLVDRIIHFWETGDFESLLKNVDPNARVEEIFNGKKYHSHGREEFERTLQEWLDRYKNVTIHIREVRMFNGVAIIHAELLIGDKRHEVHLHWFIYDGVLRHVRIQFE
- protease stability score: 1.49

Sequence: DKEDEDMERIVKEFLHLHLTGDWKLMAELLDPDVRVEFDGKRYHGRENWSKLLEDEFRRIKNATIRIEIKHIDLQGDFARSEVVLHIIVNGVEHRHEMQIDMKVVNGRIHSIRIVRV
- protease stability score: 1.47

Sequence: DKEDEEAKRLLEIFITHHLTGDEEHYQTLMDPHARLDFDGRHNVGREKITEFLRRFGADHVHIKHIEVELYNGKLYVRIEVELRIGDKTMDMIWVLQLRKVDGRWHIRRETWILL
- protease stability score: 0.703

Sequence: DKEDEERKRWEERMLQAITTGDEKTLEDLIDPNARYEINGRERHGREDLLKEFSKIKNVRIELRIHHVRFYDGQLEIDLRLILHIDGVDLRHETRIHAQKYDGVWYIKDITFH
- protease stability score: 1.02

Sequence: DKEDREAHFLARLFLKIEETGDEETMHKYFDPHVRWIQGDWHMHGREDIIEFVRHMGVTIQMHDHEDIKVFDGRVQIKGHKRVNINGKQFEISVRIDINVINGRIRKVQIDEK
- protease stability score: 1.32

Sequence: DKEEDEFRKAFEIVRHTWKTGDEHLLEKLMDPDARMDVNGVHNHGREEATKTVFEIVEKIKNARLEFKRIEVYDGRIFFHMDWDVNGVRVFVLIISIKVDGRWRHKSYSEDRV
- protease stability score: 0.856

Sequence: DKEEEDSDEALKWFFDVLRTGDERLIREMLDPDARIEIDGVPSHGRESVEEFVHRIRNMKVDDFQVKRIDVQGDKVRLDTHFDGTINGVRRQVDLTIIARKINGRWFNESISIK
- protease stability score: 1.91

Sequence: DKEEEDVKKFTDEFIHHYLTGDWEKIRELADPNVRLIVGDKTLHGRELFIDWLRDELRRIDHIEHHVHRMSVINGKVHIDAELRIYINGRLHQTRIEIHLVIIDGRMRMVELRFR
- protease stability score: 2.13

Sequence: DKEEEEVREALRILLEEWHTGDFDRILDLFDPNDRMHIGDKDLHGRHIMEHFYDHMIKRVKNMRIELTDVRFQGDKVWFHVKEHFDGRTISSEIVLVKINGKWRIETIFII
- protease stability score: 1.46

Sequence: DKEEEHMREMVRLYQHIRLTGNEEVIRNLADPTMRFDLDFEEKRVTAIGREQYLRVTDKLKKDLGLENIEVRVKEMEAFDGVIHINGHERFNGRSYDTHIWLVIVNGRWEFIRIEIR
- protease stability score: 0.116

Sequence: DKEEEKSREFFRIFYELWLTGNEELNERLADPNVYVDINGQEIHGMHVAKNVLTRELEELRVKDIKIDDYKTQGEKAVFHGKWEGYVDGRDSMEHVTVILTVVDGKVDNMSIKFD
- protease stability score: 0.97

Sequence: DKEEELIRELMEQFTHWLITGNWKKIVDMADPNVQILYNGQEFHGREELHKALQELLEKLGFKHIEIRRKHVVDGRVHLDGRSIINGRRFEVEYISVIINGVIKEIELRVE
- protease stability score: 1.95

Sequence: DKEEELMKTFSQLFEHWVETGDETEMLQNADPHAKSRFNGREIHGREDIVELLKRIIDQADHHEVHTDKVKVVGDKIHINSSFHIHIGEFTIRLHYELIVDKINGRWILKEVRLG
- protease stability score: 0.927

Sequence: DKEEELSEIAHKIWIHELHTGDFESLEKNMDPHARIIQGDWHYHGRESVYHVFSRIVRMLGVKHIEIHSMEVINGQVHLDTRLHAEGHSRNTHVFFVKINGRWLSKEFEIK
- protease stability score: 0.711

Sequence: DKEEELVKKFLELWLHALRTGDEDFIRELFDPHARFVFDGRDFHGMEEFIRIMRHIRFHHIHLHHFDLQGDYVRLDTRVDGNVDGKRVTINTHMIMHKVNGRWVLESYTID
- protease stability score: 0.839

Sequence: DKEEEMVRHTATRFLHLLLTGDEEIITHLADPNMRIEVGDKESHGREHFADVIKEFSDHMRIKEWHIEVNEVVNGRILFDIHVDGIIGDKEDRIRFHLDIVVVNGKIKHVRIKIK
- protease stability score: 1.15

Sequence: DKEEHDMKRLADLMKRIFETGDWEEFWSLVDPNVRLHWIVNGREYEVIGRENASEMIEITLELLGVDHVEIHDIDVQGDKVHMKTRSIVNGREIDDNYHYIIVDGRLRRVEIKLK
- protease stability score: 1.81

Sequence: DKEEHDVHNMWQHLVEVLLTGNEEAIHENLDPDAKLEVGDKRYHGRELVSEVWSRLGINVIQLDDMRPIGNKVHVETTTHFNGKTLEMRIDAHKVNGRWLSESLIIR
- protease stability score: 0.951

Sequence: DKEEHLVKILIEILHREWETGDEDSISRNADPNTRVDIGDKHFHGREDAMEVLKRMLHQFPNIKFHIEDMRIIGNFVEIDVVINWNGKDVKSHLVFFKINGRWLTRHVEIR
- protease stability score: 1.32

Sequence: DKEEKEAREWSKRFLHLFLTGNEEEFKRLMDPHTQSMLLIDGKRDTHHGRDEATKLLSDWLNHMRLRELRVHDIKVQGDKATLDIRLNVEFNGVELERTSEIIIVVFDGRIKSVIFRIE
- protease stability score: 1.55

Sequence: DKEEKELEELVKLMVELSDTGDWKTFYQLADPHTKLHNLVDGKWDEQHGRENFVEVERKLRERFKGLRVERHDISVQGNKVHVDVILHVNGREMEIDEVFVIINGKLESVEIHVR
- protease stability score: 1.19

Sequence: DKEERYLEIAVNVIRHQLETGNEEDLLRNIDPDTRLFIDGRLFHGWETAHYLLRKVKNARIEIRSVHLIGDKIHMDTELIVNGVLRETEITARKVDGQWTWHHIRIE
- protease stability score: 1.39

Sequence: DKEEVEKIAREALEAAVKGDEDKLKTYLGPDVKYVLGDQEYQGQQVAELVMKLIKKDGARLQLETLKVEGNTVQAQYQFHVDGVTRKAHITMKVKGGRVDEWQVHIDDHAKEALKKG
- protease stability score: 1.89

Sequence: DKEFEDVIRMAEHEMKLMETGDWKTHEHLADPNYRVDINGREHIGWDHFVRWLFHMRIHRIEIKEVRVQGEKATLRLKVDGEQGDKRFKTDIEFSLLIVDGRIKEIHIILH
- protease stability score: 1.36

Sequence: DKEHKESTKATHDVLRSWKTGDERFREELADPNARMEFNGREHVGREFMSELLRHLWEELGVDHMELKRVIIQGDKIHIDMDLTVGDKSIHLHVTVQKINGKWIIKSIRLELT
- protease stability score: -0.192

Sequence: DKEKEDAVRIVEHWIEALLTGDEHELKKYLDPEVRVEINGRDIHGMHLWSEHFKELRHEELHIHIRTVHVFDGKMSVEGELRIVGEVDGRRTDIIYHTEIEIEKVDGRWHIHHIHLR
- protease stability score: -0.195

Sequence: DKEKEDLKKLSDWWLHAIETGDFETIFRLLDPHVRIEINIGDKTHSIHGREEFYKWLHRVKNLQMTIHHSEPIGDKIRLHGFFVIDGVHHDTRHELYFIDGRLHEVHIHVI
- protease stability score: 2.21

Sequence: DKELHIAYHLLKVFEHTLATGDEETSERLLDPDVRFWINGVDFHGWELFSTFMKHARFSFRDSRFHDNRLVNGQINLVGRVRLEIDVDGRRHHTETDVRVVILKVDGRWVIHSMEFK
- protease stability score: 1.46

Sequence: DKENHLMRELTRLIVDYINTGDWKEFRKLADPHVRIVIEVGDKRIERHGMEDWLKLVRDRLEEIRTHIEVHDVEAQGDKAHLDGRIRLIVGEFEIVIESRIKVVSIDGKLKEISVHMV
- protease stability score: 1.48

Sequence: DKEREHLKQLAEIIIHLWHTGDEEILMHLADPNTRLIIEWNGQESQYHGREEMYTIIRRIYEELGADHIHIEDHDVQGDKVIIHSRLEQGDKRVELHLIVVFVNGRLKEMHIHINDK
- protease stability score: 2.34

Sequence: DKETKDSEKMSRMYFEYLLTGDFEKLLEMADPDVRFEFNGKEYIGMHETIEILERIWKDLGIKHSELKKVELQGEKAIIDGRIKYGDKEVNVKIILLVWNGKMREQRIHYQ
- protease stability score: 1.1

Sequence: DKFERDLEEALREVLEALETGDEDRLLNLFDPHARIDIDGRDLHGWEDLTRELREIRIRHIHLHDRRIQGEWIHFDTITDGEFNGQRTTVRTHILMLKFDGRWMIREVTFI
- protease stability score: 1.51

Sequence: DKHEEALEIAIRLLELVWKTGDFEDFVRLLDPHTRFHYGDKDFIGMELWLRLHEHLGITQIEIRSTHHHRIHAQGDKVILDIEIEGIIGDKETRHRIKLVVVKVDGRWKIKEVHIR
- protease stability score: 1.09

Sequence: DKIKHLEDEIEKIFFETIETGDEHLFNQLVDPNVRVRIGDKHSVGREHVERVEREHREHMGVDHVEIRIHDSRTFNGVIHIEGKLHYHVNGRRHEHRIHIFLVVWDGVVRHLEIEIR
- protease stability score: 0.305

Sequence: DKKEKDAKEAFDWLVKHVRTGDETMLHELMDPDVKLEIGDKHIVGRENVVHVFSRLIERADHMEFILTDMKVYDGRVESDTILVLHIDGVEIRRKTKITVIKINGRWLLHTVHIE
- protease stability score: 1.31

Sequence: DKKQVHDVARTLVQYYVSGNSERVKQLGKEDVELHAGDRTYHGVDQMAKVVEQFKKYGVELEVKDVKVDGNRVTARVQFHKAGTTWEFKVDVQADGGKVDQVRVNVTEEAIKHIQHG
- protease stability score: 0.715

Sequence: DKLDKLLREMLELFNHLLKTGDWDTITKLVDPNVRIDINGQELHGMELILEWWLRLGIRNEHERERDRDSQGEFMHVEGHRHIRINGQSTRFDTILHIEIIDGRIKDIKVNLI
- protease stability score: 1.12

Sequence: DKLEKWAEHMVHLIFRAFETGDWRMLSKYFDPDTRHHVGNFHLVGMEDFIKLARELSERLGMEIDRVHVRHFDTQGDKLTVEIIVHSRVGDKEETRETIILVSKYNGRWHLSSIEIK
- protease stability score: 1.39

Sequence: DKLHHDARWMMERLYETLETGDFHSFLRLADPEVLLIINGQFLHGREEVERFYDEEREKFKGLTIKHLHIHRVEMQGDKVRVDSRIHHIINGVNVHNNVKLEFVAFDGRMHRLRIEEE
- protease stability score: 1.24

Sequence: DKQHEDIRRFMEEFLNAVTTGDEDVLSRLHDPHARFRLHQGEKHDEKHGRESWLKWMSEIRIHHIEIEHIDVQGDYTLMIVHSDGTIDGVRMEWESRIILYVYNGKLKEVEVRIH
- protease stability score: 0.691

Sequence: DKRDEKMERFLRLMIEFYTTGNEDEFRKLADPDVRTIVGDKHAHGWEESEKVFRILIDHMRIRRIHIEHITVQGNWAHSITRLDGEVNGVRVHVRTEVVIIVYNGRVETIDLRWE
- protease stability score: 1.28

Sequence: DKREEELHWAVELLIDIFRTGDERLLIELIDPHARSEVGDKTLHGRQHAEVEHRDWGLDRVETHIHDYKVQGNKLHLDMSTVVNGKDIKISFIAEKYNGRWHLKRIIIR
- protease stability score: 1.27

Sequence: DKREEEVHELIRELVESIITGDFRHFFKLLDPHARSEVGDKELHGREQISDWLLKHIRRVKNITFKEVHFHELRVIGDKVEFHFDIRGVINGQDTTLEVEMKARKIDGRWHVEEIRFI
- protease stability score: 1.28

Sequence: DKREEIAREIWKMFDDAVFTGNEETLERMADPNVRFIIGDKHLIGMRDEIHWLREIRVHIELSRIHDIHLQGDKIHIDSHNDIEIIINGQERRHETKYMIDIRKVNGRWIIERVEIR
- protease stability score: 0.818

Sequence: DKREHDMERWFKLWWHTLMTGDEDLYHELLDPNARIVQGEKHHHGRENLVEYFTHLVEEMRIRHFHLHDMRFQGEKNDIDGHIDITINGQRHDTRFTIHLLIVNGKLRHVELRIL
- protease stability score: 0.506

Sequence: DKRIEWYRHVMEVLFNILLTGNFEILEELLDPHVRIDINGKEYHGREQMIEAWETHLHELRIHDMRIKTIDHQGDKHILTTRVDIDIDGQNVEDRTHIELHIIDGRLKSIILRVS
- protease stability score: 1.06

Sequence: DKTEEDAKRWAEHFSHNMETGNEEKIIDLADPNTRLEVNGRHVHGREEFSRFWKELSDRVDHIRIQITRISIIGDKIRIDSRIFLHINGKEMIVESVLISEKVNGRWMMREIDIR
- protease stability score: 1.84

Sequence: DKTTEEAERDAREVTRLHRTGDEEYLEKYFDPHVKLEFNGRDVHGMELASEILKKVRRDLGVDHIEVKHVELDVQGEWIHVHLNLRVFFDGRETRYEYNVHVRKIDGKWIIKHVIVRVS
- protease stability score: 1.34

Sequence: DKVEDDLREFARLFVEYMETGDEDKVSKLMDPSMRIEIHINGKDIKYHGREELNRWRSEEMKRVDHEKWHHKHIRVIGDKVDIDFRRVEHVGDKHLVFQVHIELFVINGKLHTVIIRIE
- protease stability score: 1.53

Sequence: DLDNILMKLFLKEVEEVERTGDERLIHELADPNVRVEQGDKKFHGRHEAVRIYMELGIKHSRLTDVKFFEGHVLIHVRIHVDGRDIDLTIFMHKIDGRWIIKSMKQD
- protease stability score: 1.16
